The assay addresses MoPrP-Fc (mouse, UniProt P04925 23-230). Description: ELISA.

Chain of MoPrP-Fc (P04925 23-230): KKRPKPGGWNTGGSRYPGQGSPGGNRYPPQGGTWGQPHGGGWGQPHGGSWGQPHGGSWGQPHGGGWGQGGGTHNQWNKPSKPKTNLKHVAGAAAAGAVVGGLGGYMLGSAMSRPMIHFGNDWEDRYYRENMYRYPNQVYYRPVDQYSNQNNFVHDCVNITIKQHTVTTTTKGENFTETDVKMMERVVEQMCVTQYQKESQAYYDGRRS

B1: mouse (Mo) Dpl (26–155) (domain or fragment)
chain: ARGIKHRFKWNRKVLPSSGGQITEARVAENRPGAFIKQGRKLDIDFGAEGNRYYAANYWQFPDGIYYEGCSEANVTKEMLVTSCVNATQAANQAEFSREKQDSKLHQRVLWRLIKEICSAKHCDFWLERG
Consider B1, for which the binding result is on record as “binds”.

(Values after PMC3399532 (Prion, 2012).)
